Results on one molecule are retold here after paper PMC6589724, “A geminivirus betasatellite encoded βC1 protein interacts with PsbP and subverts PsbP‐mediated antiviral defence in plants”.

The target of the data set is T1, GST-βC1 (Radish leaf curl betasatellite (RaLCB), UniProt A9XCM1 1-118).
T1 sequence: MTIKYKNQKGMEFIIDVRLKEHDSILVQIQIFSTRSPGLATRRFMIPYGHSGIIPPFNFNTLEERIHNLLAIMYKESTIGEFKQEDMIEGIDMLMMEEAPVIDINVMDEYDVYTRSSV
As to the kind of experiment: EMSA; 20 mM Tris-HCl pH 8.0, 2 mM DTT, 5 mM MgCl2, 12% glycerol, 25 mM KCl, 2 mM ATP, 10 nM probe, 15 min, room temperature; 3.7% native PAGE. The settings on record: protein: recombinant; tags: N-terminal GST (pGEX-6p-2); label: 5'-32P; single strand.

Consider ACGCTACGCAGCAGCCTTAGCTAC (ssDNA) [SCR probe (1303-1326)], for which the binding result is on record as “binds”.
